Experimental data taken from the DeepSol protein solubility set.

Test: soluble on expression in E. coli; label from the status in PepcDB or PDB records

## MGSDKIHHHHHHMKKKTTTVYVDKQYKLTRDVAPLSFMLPIKHSRRFPLLHFDESTGTNRELRYARNQKSPFVDKQDGNALLEPVIFEDGFLFVKKENQVLQQFLHYHPLNGTKFVEVDKSKDAAQVVDQLMIEADALVEAKKLSLEQLENVCRVLFNTNVDKLTTAEMKRDVLVFAKNNPQDFLDICSDPELKIMGMVQSFFDKGHLAYRKSKKEVWYNTPTNKTKMLNVPFGADGLDLVVSYLQSDEGIDVLKHLETL
  soluble on expression in E. coli: not soluble

## MDDPFASLEPLAVAPSGPEGVRAQFDQMEDIPPPRPRQPPPAQEDPVEIEVTEDGVARAFTEKYGGTLRFDHDAGRWYHWQEDHWQADTTSRAFEYCRRLARLASEGAKHSLLSTARKASFAGGVERLARADPAHAVTQEAWDRDPWLVACPGETVDLRTGRSAVPRPEDGITRRVAVAPAAQETCPTWWQFLEDATGADSSVMRFLQQWAGYSLTGITREHTLVFLYGDGGNGKSVFINTLTGLLGDYAATAGMETFTASKSDRHPTDLAMLAGARLVAASETEEGRAWAESRIKQMTGGDRITARFMRRDFFTYTPQFKLTLVGNHRPALANVKPVEPWALVVPAELETVAQQVLAEIAAAAVSDVNPFSGTLELIVEPGLTSATGWYLIGNPALHDGLAHAFLDGQSAPRIETRAGWNTLGMEFRLTWAVDAKFIGTASWFRNPGASGCPRCRPRNAQRQGVALLCLARRSEVLDRLEHHHHHH
  soluble on expression in E. coli: not soluble

## MVRANGAVSLRELARVVQTSEVTVRRDVRALEAEGLLDRRHGGAVLPGGFTRESGFPQKSHLATAEKTAIADLAAGLVEEGEAIVVGAGTTTQELARRLARVPGLTVVTNSLLVAQALAHANRVEVVMTGGTLRGSNYALVGSGAEQSLQGLRVSKAFLSGSGLTAERGLSTSNMLSASVDRALVQAAAEVVVLADHSKLGTDTMFQTVPTDVITRLVTDESPGHDDRAATELQALADQGVQIAVAGASGGGTANGTGASGAPGGDSVGRQQRRDVPLPGPRRQVPGAAGAGLRSATALGEQGGGAERARVADMRRRLEHHHHHH
  soluble on expression in E. coli: not soluble

## MEKIRQPTHAGSWYTDNPTKLSSDLEEWLNATGLTKSPDVRGVIAPHAGYSYSGRAAAYAFANIDPTNISRIFLLGPSHHFYTPKCALSTATVYKTPIGNLPVDVEMIKEIRAMGKFGMMDLRVDEAEHSMEMHLPYLAKVFEGNNVKVVPILVGAVSPENEAMYGELLAKYVDDPKNFFSVSSDFCHWGSRFNYMHYDNTHGAIHKSIEALDKKGMDIIETGDPDAFKKYLLEFENTICGRHPISIFLHMLKHSSSKIKINFLRYEQSSQCQTMRDSSVSYASAAAKLET
  soluble on expression in E. coli: not soluble

## MHNKIVRIASSALTGGKLLEKLKPLTRWEVQWDPNKTKCLGITREVTFKDYETTWAFLTRVSMRSHLWGHHPLIHTSYTWVKLELHTHDIDPKDGAHSQLSDIDVRMAKRIDSYIDEMTT
  soluble on expression in E. coli: not soluble

## SGQLLPQGAYREVPQYWKQAAELINREGAHTRTLVLPAASFARQTWGWTRDEPLQPLLQVPWVVRDAVPLVPPETIRGLDGVLSVVDKGAVDHLGDQLRRIGVGIVVIRHDLVAPHSGDATLTLMRSEFPDIKVHTFGSGKERVDVAILDRQAHGYLTDKLTRVAGGGEALSLLGPGDFILSDSDAEIVTDTPMLAARNYGAARRAISAPLATEAEGKDVGNPVRDYPSAARATRVVERGGHVVASSSAADATAFGGADPTRSITAAVDNDPDTAWFAAPGDRHPWLELQAESPDPHLELRITGKAGKVIIRSNNAHVAADMRPGVPTTIRIPGGATNRVRIEVAPGMGIASAQLIHSPITRVPTLPPAGPSAHTFLFQKVMVDTGLLTRGFETARPIEVTLSASHCERTITIDQVTYACGERFLLPAGYHELSTRSDWVRLSGDGKAGFVDLNGDSVFVTTQAANRGMRAFIGDHELTPISVNAGGQGFIVPKALATDDVLDVIRFEFAGEHTYRR
  soluble on expression in E. coli: not soluble

## MDAPRINKWLKPLSALYGVGVRLRNYLFDKNVLISNSFDIPIVCVGNITIGGTGKTPHVEYLIRLLHPRYRVAVVSRGYKRKTKGMIVATEGSTAWDIGDEPRQIKRKYPDLTVIVDADRSRAIGYLCDLAEEQRPQLIVLDDGFQHRKVKADLNIVLTDYNRILTKDYLLPAGRLREPAGSIQRADMVILTKCPDDLAPIDLRAAKRDLALYPHQKLFFSKFLYGQGLKPLFSDQSPSAEVRSALAIAGIASPKLFFREIRTRFPSGTDRIYPDHHEFTDREICLLIQDWHELHRKDANAIVVCTEKDAMRLALRQSSFPQEMQERFYYLPVEVKLMFDQEKVFVDRLLGVIQHKKLEHHHHHH
  soluble on expression in E. coli: not soluble

## NHELDWSDIKGQHHAKNAMVIAACGGHSILLSGAPGSGKTMMAKRFSTLLPELSETQALECAAINSIRGKLPDFREWRLPPFRAPHHTASPVALVGGGNPPKPGEISLAHHGVLFLDELPEFNRQVLETLREPLESGHICISRAAAQIEFPAKFQLIAAMNPCPCGQWGNSQANCLCTPDRI
  soluble on expression in E. coli: not soluble

## MANSAGSMIKEFCAENFTKIPQAIQKGANRIELCDNLAVGGTTPSTGVIEEVLAYAGEHSVPVMTIIRPRGGNFVYNDIELKIMHTDLIEAKKLGTDGIVIGCLTEDGWLDEEALDLFIETAEGLQITFHMAFDALSKENQFKAIDWLAERGVTRILTHGGPAGTPIEDNFDHLKELIVYADQRILILPGGGISTENVQTVMDTLKVTEVHGTKIVLEHHHHHH
  soluble on expression in E. coli: not soluble

## MSDTADSLSARGIPKSELIEDVESWLTKEKLSIEEAEVVLREKYGKYKYVESSMLAQKVRMSEKIPEFENSLSIIDTLIAKRAADESFETTFLLSDDVYTKATVQKPEKVSIWLGANVMVEYDLENARKLLDKNRGSVQKVVDELTNELSYIKDQITTTEVNMSHIVNFGVNKRRAALAVNNGAK
  soluble on expression in E. coli: not soluble

## MHHHHHHGMASMTARPLSELVERGWAAALEPVADQVAHMGQFLRAEIAAGRRYLPAGSNVLRAFTFPFDNVRVLIVGQDPYPTPGHAVGLSFSVAPDVRPWPRSLANIFDEYTADLGYPLPSNGDLTPWAQRGVLLLNRVLTVRPSNPASHRGKGWEAVTECAIRALAARAAPLVAILWGRDASTLKPMLAAGNCVAIESPHPSPLSASRGFFGSRPFSRANELLVGMGAEPIDWRLP
  soluble on expression in E. coli: soluble

## MAQNESPAEQLFAAIGLLRRHTRRRVGRPWPETPLTGSQVELVRLLRRRPGTSVAEAAAALGLAANTVSTLVRQLTDAGLVERVRDESDRRVARLALTDDARAQVERWRDRRNIEVAAAFDGLSAEDRKAIESAIPAITRLAGALHPDQAGPSDQEVVR
  soluble on expression in E. coli: not soluble

## DIQMTQSPSSLSASVGDRVTITCRSSQSLVHNNANTYLHWYQQKPGKAPKLLIYKVSNRFSGVPSRFSGSGSGTDFTLTISSLQPEDFATYYCSQNTLVPWTFGQGTKVEIKRTVAAPSVFIFPPSDEQLKSGTASVVCLLNNFYPREAKVQWKVDNALQSGNSQESVTEQDSKDSTYSLSSTLTLSKADYEKHKVYACEVTHQGLSSPVTKSFNRGEC
  soluble on expression in E. coli: soluble

## VALSADIVGMHYRYPDHYEVEREKIREYAVAVQNDDAWYFEEDGAAELGYKGLLAPLTFICVFGYKAQAAFFKHANIATAEAQIVQVDQVLKFEKPIVAGDKLYCDVYVDSVREAHGTQIIVTKNIVTNEEGDLVQETYTTLAGRAGEDGEGFSDGAA
  soluble on expression in E. coli: soluble

## MHHHHHHRMKQLEDKVEELLSKNYHLENEVARLRSPPLLVGVVSDILEDGRVVVKSSTGPKFVVNTSQYINEEELKPGARVALNQQTLAIVNVLPTSKDPMVYGFEVEE
  soluble on expression in E. coli: soluble

## MGSDKIHHHHHHMVATENRMLMEIAAEISAREATLGFQEVKTKSRSAGLTAAFDIASVFFSSGCNVVVAFDRFASNWSDHSDHVDYAAQVAGFGASMLAYTVRRGQFDTAVRDIRDIKSEVDIPILLHDPIIDPYQIHEARVMGIDALQFPVWAMEQARLESLVDRTESLGMTAIVSVRNHEEAHRAVDAGATVVAIDITGYTGSLTLPEAFSGITQFMPKEVARIVLGGCSSPKELMRFARHSADAIFVPHADLATTKSLVTAGMHPACPSR
  soluble on expression in E. coli: not soluble

## MISSIRLDLFRTKVFVMPLKFPLSICLLGTFLVTSAQAQEAVKGVVELFTSQGCASCPPADEALRKMIQKGDVVGLSYHVDYWNYLGWTDSLASKENTERQYGYMRALGRNGVYTPQAILNGRDHVKGADVRGIYDRLDAFKREGQGLNVPVSSKFAGDEVEIDIGAGNGKADVVVAYFTREQTVDVQKGENQGKKMSYWHSVYDVQTVGMWDGSPMTVKLPASVVAKVKKGGCAVLLQTANASGDPAAIVGASILLGNETQLEHHHHHH
  soluble on expression in E. coli: soluble

## MSLKKKIAVVTGATGGMGIEIVKDLSRDHIVYALGRNPEHLAALAEIEGVEPIESDIVKEVLEEGGVDKLKNLDHVDTLVHAAAVARDTTIEAGSVAEWHAHLDLNVIVPAELSRQLLPALRAASGCVIYINSGAGNGPHPGNTIYAASKHALRGLADAFRKEEANNGIRVSTVSPGPTNTPMLQGLMDSQGTNFRPEIYIEPKEIANAIRFVIDAGETTQITNVDVRPRIELADRKEGHHHHHH
  soluble on expression in E. coli: soluble

## MKIIAYGARVDEIQYFKQWAKDTGNTLEYHTEFLDENTVEWAKGFDGINSLQTTPYAAGVFEKMHAYGIKFLTIRNVGTDNIDMTAMKQYGIRLSNVPAYSPAAIAEFALTDTLYLLRNMGKVQAQLQAGDYEKAGTFIGKELGQQTVGVMGTGHIGQVAIKLFKGFGAKVIAYDPYPMKGDHPDFDYVSLEDLFKQSDVIDLHVPGIEQNTHIINEAAFNLMKPGAIVINTARPNLIDTQAMLSNLKSGKLAGVGIDTYEYETEDLLNLAKHGSFKDPLWDELLGMPNVVLSPHIAYYTETAVHNMVYFSLQHLVDFLTKGETSTEVTGPAK
  soluble on expression in E. coli: soluble

## MAQGFAVGFDPLGLGDLSSGSLSSLSSRGHLGSDSGSTATRYLLRKQQRLLNGPPRGIRASSPMGRVILINSPIEANSDESDIIHSVRVEKSPAGRLGFSVRGGSEHGLGIFVSKVEEGSSAERAGLCVGDKITEVNGLSLESTTMGSAVKVLTSSSRLHMMVRRMGRVPGIKFSKEKTTWVDVVNRRLVVEKCGSTPSDTSSEDGVRRIVHLYTTSDDFCLGFNIRGGKEFGLGIYVSKVDHGGLAEENGIKVGDQVLAANGVRFDDISHSQAVEVLKGQTHIMLTIKETGRYPAYKEMVSEYCWLDRLSNGVLQQLSPASESSSSVSSCASSAPYSSGSLPSDRMDICLGQEEPGSRGPGWGRADTAMQTEPDAGGRVETWCSVRPTVILRDTAIRSDGPHPGRRLDSALSESPKTALLLALSRPRPPITRSQSYLTLWEEKQQRKEKSGSPGEKGALQRSKTLMNLFFKGGRQGRLARDGRREAWTLDSGSLAKTYPRLDIEKEMGAT
  soluble on expression in E. coli: soluble

## MAHHHHHHMVLRPRPLKHSLLRRGRINPAATHREVSLPILLTLVTCPIPRPMQVDRSLWAEGPLQAQHPHSPTHLSRQQVECMLLAGVPPRAFRLQDKPSKVSETAKEAPQGDEEGEPRAQHEADHTTKGGGDDFLDKNGNEKREPPAGSQTAPLPDGGKNAHYYFFLLLPARPATRCHLSADEVVEQRQKFSAMKQLPLGELSVTEVLLNAQPLAHSQGAWTS
  soluble on expression in E. coli: not soluble

## MPISEPTWAELPFLFKSAVVELLPYKNRCCLRKCSKSDQFLVDSTPNHLHDVAIHTCENYTVFTYSDSPDTVFTLKYFKNIGENDLKIEYSESPVLFVPGKNQKFIFKTSIHVENLASEADDVDFALDDFKLLLNRLNCKKSIINMIPNQYNPIAHPDRTIEFRQRLLDLMTSSFPKKSIKSKSLVIHWHQETQEIAEILQVFHTKTLKNLEFHDRNATWHMAPIIGTEQWKGARSVLLEHLSDVKIEELKDFNEIQMHVRDSGEQELWTVIQNFIRKNLHGSSFHFTYRQAEPNVDRILATFNVPPRDEPITARTRLRSVLGSRFIHTQRFQMPSTDLILVVMISEKEVMGTVCHVDQVNVEAKVERGLLR
  soluble on expression in E. coli: not soluble
